The values that follow come from PMC8584152, “The Bacterial Amyloids Phenol Soluble Modulins from Staphylococcus aureus Catalyze Alpha-Synuclein Aggregation” (International Journal of Molecular Sciences, 2021).

The labels stand for the following.
B1: PSMα2 sequence GIIKFIKGLI (10-residue array peptide) (peptide)
peptide: GIIKFIKGLI
notes: source: 10-residue peptide immobilized on a microarray chip; maker not clearly stated
B2: PSMα3 sequence FVAKLFKFFK (10-residue array peptide) (peptide)
peptide: FVAKLFKFFK
notes: as for B1
B3: PSMα2 sequence IIAGIIKFIK (10-residue array peptide) (peptide)
peptide: IIAGIIKFIK
notes: as for B1

The test concerns the target Human wildtype α-syn, Alexa-fluor488-labelled (human, UniProt P37840 1-140). Description: peptide or protein array. As to conditions: both partners purified.
For the molecule B1, the binding result is on record as “binds”.

B2: the binding result is listed as “binds”.

As for B3, the binding result is listed as “binds”.
